Experiment [1] has as its target T1, human neonatal Fc receptor (FcRn), recombinant GPI-linked, on NS0 cells (human, UniProt P55899 24-297; P61769 21-119).
T1 construct: Expressed from vector pDL208 on the surface of NS0 cells; also called human FcRn; HuFcRn; not shown: human c-myc decapeptide flanked by linker peptides, then GPI linkage signal of human decay accelerating factor (vector p)
Briefly: competition flow cytometry, NS0 cells with human FcRn, vs biotinylated HuEP5C7-IgG2M3, FBB pH 6.0.

For experiment [2], the target named is T1, human neonatal Fc receptor (FcRn), …. Briefly: competition flow cytometry, NS0 cells with human FcRn, vs biotinylated OST577-IgG2M3, FBB pH 6.0.
For experiment [3] the target is unchanged. Briefly: competition flow cytometry, NS0 cells with human FcRn, vs biotinylated HuEP5C7-IgG2M3, FSB pH 6.0. (In general: A flow cytometer gives signals particle by particle.)
For experiment [4] the target is unchanged. In words: competition flow cytometry, NS0 cells with human FcRn, vs biotinylated OST577-IgG1, FBB pH 6.0.
The target is the same in experiment [5]. The experiment is described as above. The source holds these as a separate data set.
In experiment [6] the target is T2, rhesus neonatal Fc receptor (FcRn), recombinant GPI-linked, on NS0 cells (rhesus, UniProt H9Z6D2 24-297; Q6V7J5 21-119, GPI-linked at the C-terminus).
T2 construct: Expressed from vector pDL410 on the surface of NS0 cells; also called rhesus FcRn; RhFcRn; not shown: human c-myc decapeptide flanked by linker peptides, then GPI linkage signal of human decay accelerating factor (vector p)
Briefly: competition flow cytometry, NS0 cells with rhesus FcRn, vs biotinylated OST577-IgG1, FBB pH 6.0.

B1: OST577-IgG2M3 wild-type antibody (antibody)
chain 1: QVQLVESGGGVVQPGRSLRLSCAASGFTFSRYGMHWVRQAPGKGLEWVAVISYDGSNKWYADSVKGRFTISRDNSKNTLFLQMHSLRAADTGVYFCAKDQLYFGSQSPGHYWGQGTLVTVSSASTKGPSVFPLAPCSRSTSESTAALGCLVKDYFPEPVTVSWNSGALTSGVHTFPAVLQSSGLYSLSSVVTVPSSNFGTQTYTCNVDHKPSNTKVDKTVERKCCVECPPCPAPPAAAPSVFLFPPKPKDTLMISRTPEVTCVVVDVSHEDPEVQFNWYVDGVEVHNAKTKPREEQFNSTFRVVSVLTVVHQDWLNGKEYKCKVSNKGLPAPIEKTISKTKGQPREPQVYTLPPSREEMTKNQVSLTCLVKGFYPSDIAVEWESNGQPENNYKTTPPMLDSDGSFFLYSKLTVDKSRWQQGNVFSCSVMHEALHNHYTQKSLSLSPSK
chain 2: SYVLTQPPSVSVAPGQTARITCGGDNIGSKSVNWFQQKPGQAPVLVVYDDNERPSGISERFSGSNSGNTATLTISRVEAGDEADYYCQVWDSSSDHVVFGGGTKLTVLGQPKAAPSVTLFPPSSEELQANKATLVCLISDFYPGAVTVAWKADSSPVKAGVETTTPSKQSNNKYAASSYLSLTPEQWKSHRSYSCQVTHEGSTVEKTVAPTECS
With B1, the IC50 in experiment [1] was found to be 9.4 µg/mL; in experiment [2], 11.9 µg/mL; in experiment [3], 10.7 µg/mL. The “Relative Binding” value in experiment [1], in experiment [2] and in experiment [3] was 1 ratio (IC50 wild-type / IC50 mutant) each time.

B2: OST577-IgG1 wild-type antibody (antibody)
chain 1: not shown
chain 2: B1 chain 2
Regarding B2, the half-inhibitory concentration (IC50) in experiment [4] is 10.3 µg/mL; in experiment [5] it was 13.9 µg/mL; in experiment [6] it was 8.86 µg/mL. The “Relative Binding” value in experiment [4], in experiment [5] and in experiment [6] was 1 ratio (IC50 wild-type / IC50 mutant) throughout.

Broadly, the IC50 is the concentration that inhibits the measured activity by half.

Values taken from EP1562972B1 (Facet Biotech Corporation, dated 2010).
